Source: the supplement of paper PMC11865577

Tests used:
Test in all cases: pull-down binding Z-score (relative to library population); higher = stronger binding
[1] = system: TO-3-N3-2 (biotin conjugate); details: RNA library: Library-2
Summary of the method: (§1)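 The RNA library, end-labelled with Cy5 or Cy3, was heat-folded in phosphate/NaCl/KCl buffer, and 1 μg was incubated at 25 °C for 60 min with streptavidin beads carrying 100 pmol of biotin-conjugated small molecule. Hot SDS released the bound RNA, which was then hybridised to a DNA barcode microarray for 20 h at 55.5 °C. For scoring binding, signal from beads alone was subtracted, replicate barcoded probes were averaged after discarding the highest and lowest, and each value was turned into a Z-score from the library mean and standard deviation.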

TO-N3 (biotin conjugate) = details: RNA library: Library-2
Summary of the method: as §1

[2] = system: TO-3-N3 (biotin conjugate); details: RNA library: Library-2
Summary of the method: as §1

[3] = system: TO-N3-2 (biotin conjugate); details: RNA library: Library-2
Summary of the method: as §1

[4] = system: G-clamp-N3 (biotin conjugate); details: RNA library: Library-1 (pre-miRNA loops + repeats)
Summary of the method: as §1

| Sequence | pull-down binding Z-score [1] | pull-down binding Z-score (TO-N3 (biotin conjugate)) | pull-down binding Z-score [2] | pull-down binding Z-score [3] | pull-down binding Z-score [4] |
| --- | --- | --- | --- | --- | --- |
| GGAUGGGAGACCUGACCCAUCC [hsa-mir-5195] | -0.208 | -0.0467 | -0.0606 | -0.332 | 0.74 |
| GGAUGUGUUGACCCCUGAAGUGGUUCUGAUGACCUUUCC [hsa-mir-6883] | -0.03 | 0.387 | 0.00863 | 0.938 | -1.11 |
| GGAUUUGCUUCCUGUCACAAAUCA [hsa-mir-23a] | -0.241 | 0.271 | 0.391 | -0.188 | -1.51 |
| GGCACCUACGAUACCCAGUGCC [hsa-mir-3116-2] | -0.0787 | -0.383 | -0.264 | 0.165 | -0.645 |
| GGCACUGGGUAUCGUAGGUGCC [hsa-mir-3116-1] | 0.127 | 0.377 | 0.661 | 0.718 | 2.06 |
| GGCAGAAAUGUC [hsa-mir-8053] | -0.375 | -1.13 | -0.653 | -1.13 | 0.69 |
| GGCAGGAGGCAGUGAAGUAACUUGC [hsa-mir-3934] | 0.583 | 1.43 | 1 | 1.2 | -0.848 |
| GGCAGGGGGAGCUGCAGGGCUAUGGGAGGGGCCCCAGCGUCUGA [hsa-mir-1233-2_1233-1] | 2.98 | 3.66 | 3.54 | 3.08 | 2.96 |
| GGCAGGGUCCUCCAGCUCAUUCCUCCUGCC [hsa-mir-6829] | 0.56 | 0.491 | 0.564 | 0.71 | 0.723 |
| GGCAGGUGCCUCCGUGUUGCCGAACCCUCCU [hsa-mir-6761] | 0.116 | 0.998 | 0.358 | 1.74 | -0.447 |
| GGCAGGUGUGGUUGGAGGAAGCAGCCUGAACCUGCC [hsa-mir-6778] | 0.333 | 0.227 | -0.114 | 0.361 | 0.663 |
| GGCAGUGGUUCUAAAAGCUGUC [hsa-mir-3618] | -0.198 | 0.603 | 0.861 | 0.117 | 0.498 |
| GGCAUCAGAGGACAGCCGCCUGGUGCC [hsa-mir-4641] | -0.0706 | 0.327 | 0.287 | 0.46 | 0.915 |
| GGCAUCCCCAUUGCU [hsa-mir-4304] | -0.113 | 0.343 | 0.527 | 0.191 | -0.987 |
| GGCAUCUAGCACAGGCGGUAGAUGCU [hsa-mir-4486] | -0.34 | -0.481 | -0.546 | -0.132 | 0.983 |
| GGCAUCUAGGCUGUGCACAGUGACGCC [hsa-mir-4749] | -0.421 | -0.376 | -0.604 | 0.336 | 0.317 |
| GGCCACCCAGGGAGUAAGUAGCC [hsa-mir-4480] | 0.908 | 2.09 | 2.34 | 1.42 | 0.515 |
| GGCCAUCUGCUAUUCGUCCACCAACCUGACUUGAUCC [hsa-mir-7111] | 0.0293 | 0.256 | -0.0213 | 0.477 | 0.0541 |
| GGCCAUCUGGCC [hsa-mir-4252] | -0.435 | -0.667 | -0.403 | -1.01 | 0.63 |

| Sequence | pull-down binding Z-score [1] | pull-down binding Z-score (TO-N3 (biotin conjugate)) | pull-down binding Z-score [2] | pull-down binding Z-score [3] | pull-down binding Z-score [4] |
| --- | --- | --- | --- | --- | --- |
| GGCCCCAGGAAGAAGGGCCUGGUGGAGCC [hsa-mir-6743] | 0.267 | 0.577 | 0.235 | 1.51 | 2.82 |
| GGCCGGUCAGGCA [hsa-mir-4689] | -0.106 | 0.576 | 0.391 | 0.682 | 1.09 |
| GGCCGUUUGAGAUGUCC [hsa-mir-3674] | -0.132 | -0.259 | -0.181 | 0.0919 | -0.962 |
| GGCCUGGGAUUCCUGCCUUCUAGGUC [hsa-mir-8078] | -0.0252 | 0.707 | 0.742 | 0.307 | -0.278 |
| GGCGACUGGUGUCUAAUUUGUUUGUC [hsa-mir-4429] | -0.265 | -0.37 | -0.313 | -0.308 | 0.682 |
| GGCGCACAGCAGACCCUGCAAUCAUGCC [hsa-mir-3164] | 0.119 | 1.03 | 0.966 | 0.621 | 0.000458 |
| GGCGCGCGAGGCUCCAGGCUCC [hsa-mir-3197] | 0.248 | 0.81 | 0.322 | 1.92 | 2.56 |
| GGCGCUGGGACCCCACUAGGGUGGCGCC [hsa-mir-4488] | 0.254 | 1.25 | 1.33 | 0.687 | 1.6 |
| GGCGCUGUCUUGAGACAUUCGCGCAGUGCA [hsa-mir-3177] | -0.209 | 0.646 | -0.111 | 2.23 | -0.296 |
| GGCGCUUCUCCUUCUGAACAGAGCGCU [hsa-mir-1251] | -0.182 | -0.423 | -0.462 | -0.171 | -0.609 |
| GGCGGAGGCAGGCGUGACCGUUUGCC [hsa-mir-4632] | 0.38 | 1.11 | 0.432 | 1.56 | 1.09 |
| GGCGGCUCGGAGUACCUCUGCCGCC [hsa-mir-6869] | -0.0436 | 0.666 | 0.86 | -0.0185 | 0.238 |
| GGCGGGCGGCGGUGCCCGUC [hsa-mir-4449] | 0.0801 | 1.53 | 0.739 | 0.91 | 1.71 |
| GGCGGUGAAGCUCC [hsa-mir-4532] | -0.285 | -0.104 | -0.22 | 0.727 | 0.399 |
| GGCGUGGACAACUUGCU [hsa-mir-3943] | -0.0337 | 0.131 | -0.271 | 0.912 | 0.951 |
| GGCUCCUGGCGCUGAUGCC [hsa-mir-6886] | 0.297 | 1.15 | 0.85 | 1.15 | -0.347 |
| GGCUCGUCUGUGUUGCCAAUCGACUC [hsa-mir-1307] | 0.232 | 0.973 | 0.723 | 0.866 | -0.468 |
| GGCUCUGGGUCCUGCUCCUUAGAGCA [hsa-mir-2467] | -0.0911 | 0.575 | 0.259 | 0.837 | 0.344 |
